Experimental data published in US20260193335A1 (ZOETIS SERVICES, published 2026).

These binders were tested against T1, Feline FcRn (complex of FcRn-α subunit and β-microglobulin, C-terminal His tag) (feline, UniProt A0ABI7ZNY9 23-296; Q5MGS7 21-118) (assay: SPR Biacore, biotin-FcRn on SA chip, pH 6).
T1 construct: treated here as one molecule
Procedure: Feline FcRn was isolated, prepared and mutant Fc IgGs were assayed against feline FcRn according to Strietzel et. al., discussed above. Standard PCR was used to amplify feline FcRn-α subunit and β-microglobulin. FcRn-α subunit and β-microglobulin were co-transfected into HEK 293 cells and the FcRn complex was purified by IMAC affinity purification via the c-terminal His tag. FcRn complex was biotin labeled through BirA enzymatic biotinylatoin reaction. KD's were measured by Biacore T200 (GE Healthcare, Pittsburgh, PA, USA) or Biacore 8K (Cytiva, Marlborough, MA, USA) using a SA sensor chip.
FcRn was captured on the surface of the sensor using a modified SA capture method. 10 mM MES; 150 mM NaCl; 0.005% Tween20; 0.5 mg/mL BSA; pH6 was used as capture, method running buffer and titrations. 1×HBS-P, 0.5 mg/mL BSA; pH7.4 was also used for method running buffer and titrations. Fc mutant IgGs were flowed over receptor surfaces and affinity was determined using T200 evaluation software or Biacore Insight Evaluation software. Blank runs containing buffer only were subtracted out from all runs. Flow cells were regenerated using 50 mM Tris pH8 or pH9. Runs were performed at 15° C.

Row | Kd | Binder
1 | 17.2 nM | mAb4 (felinized anti-IL31 antibody ZTS-5864) S428M and S434H, feline IgG1a (antibody, also called mAb4 ID No. 32) heavy: DVQLVESGGDLVKPGGSLRLTCVASGFTFSDYAMSWVRQAPGKGLQWVAGIDSVGSGTSYADSVKGRFTISRDNAKNTLYLQMNSLKTEDTATYYCASGFPGSFEHWGQGTLVTVSSASTTAPSVFPLAPSCGTTSGATVALACLVLGYFPEPVTVSWNSGALTSGVHTFPAVLQASGLYSLSSMVTVPSSRWLSDTFTCNVAHPPSNTKVDKTVRKTDHPPGPKPCDCPKCPPPEMLGGPSIFIFPPKPKDTLSISRTPEVTCLVVDLGPDDSDVQITWFVDNTQVYTAKTSPREEQFNSTYRVVSVLPILHQDWLKGKEFKCKVNSKSLPSPIERTISKAKGQPHEPQVYVLPPAQEELSRNKVSVTCLIKSFHPPDIAVEWEITGQPEPENNYRTTPPQLDSDGTYFVYSKLSVDRSHWQRGNTYTCSVMHEALHHHHTQKSLTQSPGK VL: QSVLTQPSSVSGTLGQRITISCTGSSSNIGSGYVGWYQQVPGMGPKTVIYYNSDRPSGVPDRFSGSKSGSSGTLTITGLQAEDEADYYCSVYDRTFNAVFGGGT
2 | 44 nM | mAb4 (felinized anti-IL31 antibody ZTS-5864) S428Y and S434L, feline IgG1a (antibody, also called mAb4 ID No. 29) heavy: DVQLVESGGDLVKPGGSLRLTCVASGFTFSDYAMSWVRQAPGKGLQWVAGIDSVGSGTSYADSVKGRFTISRDNAKNTLYLQMNSLKTEDTATYYCASGFPGSFEHWGQGTLVTVSSASTTAPSVFPLAPSCGTTSGATVALACLVLGYFPEPVTVSWNSGALTSGVHTFPAVLQASGLYSLSSMVTVPSSRWLSDTFTCNVAHPPSNTKVDKTVRKTDHPPGPKPCDCPKCPPPEMLGGPSIFIFPPKPKDTLSISRTPEVTCLVVDLGPDDSDVQITWFVDNTQVYTAKTSPREEQFNSTYRVVSVLPILHQDWLKGKEFKCKVNSKSLPSPIERTISKAKGQPHEPQVYVLPPAQEELSRNKVSVTCLIKSFHPPDIAVEWEITGQPEPENNYRTTPPQLDSDGTYFVYSKLSVDRSHWQRGNTYTCSVYHEALHLHHTQKSLTQSPGK VL: QSVLTQPSSVSGTLGQRITISCTGSSSNIGSGYVGWYQQVPGMGPKTVIYYNSDRPSGVPDRFSGSKSGSSGTLTITGLQAEDEADYYCSVYDRTFNAVFGGGT
3 | 28.3 nM | mAb4 (felinized anti-IL31 antibody ZTS-5864) S428M and S434L, feline IgG1a, ID No. 34 (antibody, Same printed mutations as ID No. 49; also called mAb4 ID No. 34) heavy: DVQLVESGGDLVKPGGSLRLTCVASGFTFSDYAMSWVRQAPGKGLQWVAGIDSVGSGTSYADSVKGRFTISRDNAKNTLYLQMNSLKTEDTATYYCASGFPGSFEHWGQGTLVTVSSASTTAPSVFPLAPSCGTTSGATVALACLVLGYFPEPVTVSWNSGALTSGVHTFPAVLQASGLYSLSSMVTVPSSRWLSDTFTCNVAHPPSNTKVDKTVRKTDHPPGPKPCDCPKCPPPEMLGGPSIFIFPPKPKDTLSISRTPEVTCLVVDLGPDDSDVQITWFVDNTQVYTAKTSPREEQFNSTYRVVSVLPILHQDWLKGKEFKCKVNSKSLPSPIERTISKAKGQPHEPQVYVLPPAQEELSRNKVSVTCLIKSFHPPDIAVEWEITGQPEPENNYRTTPPQLDSDGTYFVYSKLSVDRSHWQRGNTYTCSVMHEALHLHHTQKSLTQSPGK VL: QSVLTQPSSVSGTLGQRITISCTGSSSNIGSGYVGWYQQVPGMGPKTVIYYNSDRPSGVPDRFSGSKSGSSGTLTITGLQAEDEADYYCSVYDRTFNAVFGGGT
4 | 63.4 nM | mAb4 (felinized anti-IL31 antibody ZTS-5864) S428Y, feline IgG1a (antibody, also called mAb4 ID No. 20) heavy: DVQLVESGGDLVKPGGSLRLTCVASGFTFSDYAMSWVRQAPGKGLQWVAGIDSVGSGTSYADSVKGRFTISRDNAKNTLYLQMNSLKTEDTATYYCASGFPGSFEHWGQGTLVTVSSASTTAPSVFPLAPSCGTTSGATVALACLVLGYFPEPVTVSWNSGALTSGVHTFPAVLQASGLYSLSSMVTVPSSRWLSDTFTCNVAHPPSNTKVDKTVRKTDHPPGPKPCDCPKCPPPEMLGGPSIFIFPPKPKDTLSISRTPEVTCLVVDLGPDDSDVQITWFVDNTQVYTAKTSPREEQFNSTYRVVSVLPILHQDWLKGKEFKCKVNSKSLPSPIERTISKAKGQPHEPQVYVLPPAQEELSRNKVSVTCLIKSFHPPDIAVEWEITGQPEPENNYRTTPPQLDSDGTYFVYSKLSVDRSHWQRGNTYTCSVYHEALHSHHTQKSLTQSPGK VL: QSVLTQPSSVSGTLGQRITISCTGSSSNIGSGYVGWYQQVPGMGPKTVIYYNSDRPSGVPDRFSGSKSGSSGTLTITGLQAEDEADYYCSVYDRTFNAVFGGGT
5 | 40.6 nM | mAb4 (felinized anti-IL31 antibody ZTS-5864) S428Y and S434P, feline IgG1a (antibody, also called mAb4 ID No. 30) heavy: DVQLVESGGDLVKPGGSLRLTCVASGFTFSDYAMSWVRQAPGKGLQWVAGIDSVGSGTSYADSVKGRFTISRDNAKNTLYLQMNSLKTEDTATYYCASGFPGSFEHWGQGTLVTVSSASTTAPSVFPLAPSCGTTSGATVALACLVLGYFPEPVTVSWNSGALTSGVHTFPAVLQASGLYSLSSMVTVPSSRWLSDTFTCNVAHPPSNTKVDKTVRKTDHPPGPKPCDCPKCPPPEMLGGPSIFIFPPKPKDTLSISRTPEVTCLVVDLGPDDSDVQITWFVDNTQVYTAKTSPREEQFNSTYRVVSVLPILHQDWLKGKEFKCKVNSKSLPSPIERTISKAKGQPHEPQVYVLPPAQEELSRNKVSVTCLIKSFHPPDIAVEWEITGQPEPENNYRTTPPQLDSDGTYFVYSKLSVDRSHWQRGNTYTCSVYHEALHPHHTQKSLTQSPGK VL: QSVLTQPSSVSGTLGQRITISCTGSSSNIGSGYVGWYQQVPGMGPKTVIYYNSDRPSGVPDRFSGSKSGSSGTLTITGLQAEDEADYYCSVYDRTFNAVFGGGT
6 | 18.8 nM | mAb4 (felinized anti-IL31 antibody ZTS-5864) S428Y and S434H, feline IgG1a (antibody, also called mAb4 ID No. 27) heavy: DVQLVESGGDLVKPGGSLRLTCVASGFTFSDYAMSWVRQAPGKGLQWVAGIDSVGSGTSYADSVKGRFTISRDNAKNTLYLQMNSLKTEDTATYYCASGFPGSFEHWGQGTLVTVSSASTTAPSVFPLAPSCGTTSGATVALACLVLGYFPEPVTVSWNSGALTSGVHTFPAVLQASGLYSLSSMVTVPSSRWLSDTFTCNVAHPPSNTKVDKTVRKTDHPPGPKPCDCPKCPPPEMLGGPSIFIFPPKPKDTLSISRTPEVTCLVVDLGPDDSDVQITWFVDNTQVYTAKTSPREEQFNSTYRVVSVLPILHQDWLKGKEFKCKVNSKSLPSPIERTISKAKGQPHEPQVYVLPPAQEELSRNKVSVTCLIKSFHPPDIAVEWEITGQPEPENNYRTTPPQLDSDGTYFVYSKLSVDRSHWQRGNTYTCSVYHEALHHHHTQKSLTQSPGK VL: QSVLTQPSSVSGTLGQRITISCTGSSSNIGSGYVGWYQQVPGMGPKTVIYYNSDRPSGVPDRFSGSKSGSSGTLTITGLQAEDEADYYCSVYDRTFNAVFGGGT
7 | 18.9 nM | mAb4 (felinized anti-IL31 antibody ZTS-5864) S428Y and S434F, feline IgG1a (antibody, also called mAb4 ID No. 28) heavy: DVQLVESGGDLVKPGGSLRLTCVASGFTFSDYAMSWVRQAPGKGLQWVAGIDSVGSGTSYADSVKGRFTISRDNAKNTLYLQMNSLKTEDTATYYCASGFPGSFEHWGQGTLVTVSSASTTAPSVFPLAPSCGTTSGATVALACLVLGYFPEPVTVSWNSGALTSGVHTFPAVLQASGLYSLSSMVTVPSSRWLSDTFTCNVAHPPSNTKVDKTVRKTDHPPGPKPCDCPKCPPPEMLGGPSIFIFPPKPKDTLSISRTPEVTCLVVDLGPDDSDVQITWFVDNTQVYTAKTSPREEQFNSTYRVVSVLPILHQDWLKGKEFKCKVNSKSLPSPIERTISKAKGQPHEPQVYVLPPAQEELSRNKVSVTCLIKSFHPPDIAVEWEITGQPEPENNYRTTPPQLDSDGTYFVYSKLSVDRSHWQRGNTYTCSVYHEALHFHHTQKSLTQSPGK VL: QSVLTQPSSVSGTLGQRITISCTGSSSNIGSGYVGWYQQVPGMGPKTVIYYNSDRPSGVPDRFSGSKSGSSGTLTITGLQAEDEADYYCSVYDRTFNAVFGGGT
8 | 63.9 nM | mAb4 (felinized anti-IL31 antibody ZTS-5864) S428V, feline IgG1a (antibody, also called mAb4 ID No. 18) heavy: DVQLVESGGDLVKPGGSLRLTCVASGFTFSDYAMSWVRQAPGKGLQWVAGIDSVGSGTSYADSVKGRFTISRDNAKNTLYLQMNSLKTEDTATYYCASGFPGSFEHWGQGTLVTVSSASTTAPSVFPLAPSCGTTSGATVALACLVLGYFPEPVTVSWNSGALTSGVHTFPAVLQASGLYSLSSMVTVPSSRWLSDTFTCNVAHPPSNTKVDKTVRKTDHPPGPKPCDCPKCPPPEMLGGPSIFIFPPKPKDTLSISRTPEVTCLVVDLGPDDSDVQITWFVDNTQVYTAKTSPREEQFNSTYRVVSVLPILHQDWLKGKEFKCKVNSKSLPSPIERTISKAKGQPHEPQVYVLPPAQEELSRNKVSVTCLIKSFHPPDIAVEWEITGQPEPENNYRTTPPQLDSDGTYFVYSKLSVDRSHWQRGNTYTCSVVHEALHSHHTQKSLTQSPGK VL: QSVLTQPSSVSGTLGQRITISCTGSSSNIGSGYVGWYQQVPGMGPKTVIYYNSDRPSGVPDRFSGSKSGSSGTLTITGLQAEDEADYYCSVYDRTFNAVFGGGT
9 | 42 nM | mAb4 (felinized anti-IL31 antibody ZTS-5864) S428M and S434P, feline IgG1a, ID No. 35 (antibody, Same printed mutations as ID No. 50; also called mAb4 ID No. 35) heavy: DVQLVESGGDLVKPGGSLRLTCVASGFTFSDYAMSWVRQAPGKGLQWVAGIDSVGSGTSYADSVKGRFTISRDNAKNTLYLQMNSLKTEDTATYYCASGFPGSFEHWGQGTLVTVSSASTTAPSVFPLAPSCGTTSGATVALACLVLGYFPEPVTVSWNSGALTSGVHTFPAVLQASGLYSLSSMVTVPSSRWLSDTFTCNVAHPPSNTKVDKTVRKTDHPPGPKPCDCPKCPPPEMLGGPSIFIFPPKPKDTLSISRTPEVTCLVVDLGPDDSDVQITWFVDNTQVYTAKTSPREEQFNSTYRVVSVLPILHQDWLKGKEFKCKVNSKSLPSPIERTISKAKGQPHEPQVYVLPPAQEELSRNKVSVTCLIKSFHPPDIAVEWEITGQPEPENNYRTTPPQLDSDGTYFVYSKLSVDRSHWQRGNTYTCSVMHEALHPHHTQKSLTQSPGK VL: QSVLTQPSSVSGTLGQRITISCTGSSSNIGSGYVGWYQQVPGMGPKTVIYYNSDRPSGVPDRFSGSKSGSSGTLTITGLQAEDEADYYCSVYDRTFNAVFGGGT

These binders were tested against Feline FcRn (complex of FcRn-α subunit and β-microglobulin, C-terminal His tag) (feline) (assay: SPR Biacore, biotin-FcRn on SA chip, pH 6).
Chain of Feline FcRn (complex of FcRn-α subunit and β-microglobulin, C-terminal His tag) (feline) (chain, as listed by the source, chain 1 of 2): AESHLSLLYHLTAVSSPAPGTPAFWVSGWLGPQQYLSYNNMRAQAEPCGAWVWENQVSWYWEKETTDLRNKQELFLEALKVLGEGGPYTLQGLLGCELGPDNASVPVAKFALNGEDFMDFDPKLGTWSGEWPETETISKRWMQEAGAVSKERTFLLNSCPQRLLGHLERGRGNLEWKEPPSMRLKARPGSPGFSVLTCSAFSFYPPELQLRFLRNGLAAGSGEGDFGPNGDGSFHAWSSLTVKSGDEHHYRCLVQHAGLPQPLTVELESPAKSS
Chain of Feline FcRn (complex of FcRn-α subunit and β-microglobulin, C-terminal His tag) (feline) (Q5MGS7 21-118, chain 2 of 2): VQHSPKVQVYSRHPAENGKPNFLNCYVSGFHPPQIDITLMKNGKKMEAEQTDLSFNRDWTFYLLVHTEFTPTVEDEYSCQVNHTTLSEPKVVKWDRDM

Row | Kd | Binder
10 | 8.65 nM | mAb5 (felinized anti-IL31 antibody) S428L, feline IgG1a (antibody, part only; not given: variable domains of mAb5, not shown: another chain or arm of the molecule; small tags and cut ends) constant: ASTTAPSVFPLAPSCGTTSGATVALACLVLGYFPEPVTVSWNSGALTSGVHTFPAVLQASGLYSLSSMVTVPSSRWLSDTFTCNVAHPPSNTKVDKTVRKTDHPPGPKPCDCPKCPPPEMLGGPSIFIFPPKPKDTLSISRTPEVTCLVVDLGPDDSDVQITWFVDNTQVYTAKTSPREEQFNSTYRVVSVLPILHQDWLKGKEFKCKVNSKSLPSPIERTISKAKGQPHEPQVYVLPPAQEELSRNKVSVTCLIKSFHPPDIAVEWEITGQPEPENNYRTTPPQLDSDGTYFVYSKLSVDRSHWQRGNTYTCSVLHEALHSHHTQKSLTQSPGK
